The target of the test is T1, mouse FLT1-FC chimeric protein with His-tag (mouse, UniProt P35969 23-759).
T1 sequence (looked up): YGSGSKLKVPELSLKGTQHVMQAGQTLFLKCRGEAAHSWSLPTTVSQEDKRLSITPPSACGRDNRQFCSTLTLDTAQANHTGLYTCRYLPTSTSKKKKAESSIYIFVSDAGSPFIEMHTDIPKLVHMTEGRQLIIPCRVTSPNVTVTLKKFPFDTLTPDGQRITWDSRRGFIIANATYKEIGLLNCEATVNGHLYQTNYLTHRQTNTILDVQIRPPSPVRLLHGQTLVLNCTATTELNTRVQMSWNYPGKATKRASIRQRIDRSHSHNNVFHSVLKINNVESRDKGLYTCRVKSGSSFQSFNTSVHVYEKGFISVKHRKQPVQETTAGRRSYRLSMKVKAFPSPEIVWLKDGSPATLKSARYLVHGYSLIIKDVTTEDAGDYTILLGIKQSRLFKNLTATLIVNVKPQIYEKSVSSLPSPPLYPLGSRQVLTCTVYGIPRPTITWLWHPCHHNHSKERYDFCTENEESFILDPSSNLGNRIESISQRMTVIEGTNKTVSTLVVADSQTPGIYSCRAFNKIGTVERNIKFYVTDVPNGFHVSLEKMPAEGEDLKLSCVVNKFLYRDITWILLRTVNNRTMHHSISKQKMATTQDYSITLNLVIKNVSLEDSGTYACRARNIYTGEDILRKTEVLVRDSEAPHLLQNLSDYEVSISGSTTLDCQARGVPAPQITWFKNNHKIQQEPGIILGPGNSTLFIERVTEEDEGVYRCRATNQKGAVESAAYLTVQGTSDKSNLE
Description: ELISA. On the technique in general: In an ELISA, binding on a coated surface is turned into a signal by an enzyme label.

Consider one molecule from publication doi:10.1101/609735 (bioRxiv, 2019).

B1: recombinant mouse PlGF2 (ligand, UniProt P49764 19-158, looked up)
chain: VHSQGALSAGNNSTEVEVVPFNEVWGRSYCRPMEKLVYILDEYPDEVSHIFSPSCVLLSRCSGCCGDEGLHCVPIKTANITMQILKIPPNRDPHFYVEMTFSQDVLCECRPILETTKAERRKTKGKRKRSRNSQTEEPHP
Consider B1, for which the binding result is listed as “binds”.
